This is an account of results in patent publication US20160010082A1 (University of California, published 2016).

Sequences and labels used below:
B1: CPX-L2-10 displaying SApep at the N-terminus (other)
chain: GQSGQAECHPQGPPCIEGRKGGQSGQSGDYNKNQYYGITAGPAYRINDWASIYGVVGVGYGKFQTTEYPTYKHDTSDYGFSYGAGLQFNPMENVALDFSYEQSRIRSVDVGTWIISVGYRFHRGYHAQRATSTVTGGYAQSDAQGQMNKMGGFNLKYRYEEDNSPLGVIGSFTYTEKSRTAS
B2: CPX-L2-3 displaying SApep at the N-terminus (other)
chain: GQSGQAECHPQGPPCIEGRKGGQSGQSGDYNKNQYYGITAGPAYRINDWASIYGVVGVGYGKFQTTEYPTYKHDTSDYGFSYGAGLQFNPMENVALDFSYEQSRIRSVDVGTWIISVGYRFGTRGSQATSTVTGGYAQSDAQGQMNKMGGFNLKYRYEEDNSPLGVIGSFTYTEKSRTAS
B3: CPX-L2-4 displaying SApep at the N-terminus (other)
chain: GQSGQAECHPQGPPCIEGRKGGQSGQSGDYNKNQYYGITAGPAYRINDWASIYGVVGVGYGKFQTTEYPTYKHDTSDYGFSYGAGLQFNPMENVALDFSYEQSRIRSVDVGTWILSVGYRFGHRSHRATSTVTGGYAQSDAQGQMNKMGGFNLKYRYEEDNSPLGVIGSFTYTEKSRTAS
B4: CPX-L2-2 displaying SApep at the N-terminus (other)
chain: GQSGQAECHPQGPPCIEGRKGGQSGQSGDYNKNQYYGITAGPAYRINDWASIYGVVGVGYGKFQTTEYPTYKHDTSDYGFSYGAGLQFNPMENVALDFSYEQSRIRSVDVGTWIFSVGYRFGRKNSHATSTVTGGYAQSDAQGQMNKMGGFNLKYRYEEDNSPLGVIGSFTYTEKSRTAS
B5: CPX-L2-9 displaying SApep at the N-terminus (other)
chain: GQSGQAECHPQGPPCIEGRKGGQSGQSGDYNKNQYYGITAGPAYRINDWASIYGVVGVGYGKFQTTEYPTYKHDTSDYGFSYGAGLQFNPMENVALDFSYEQSRIRSVDVGTWIISVGYRFGPHNSRATSTVTGGYAQSDAQGQMNKMGGFNLKYRYEEDNSPLGVIGSFTYTEKSRTAS
B6: CPX-L2-7 displaying SApep at the N-terminus (other)
chain: GQSGQAECHPQGPPCIEGRKGGQSGQSGDYNKNQYYGITAGPAYRINDWASIYGVVGVGYGKFQTTEYPTYKHDTSDYGFSYGAGLQFNPMENVALDFSYEQSRIRSVDVGTWIVSVGYRFGTHNSQATSTVTGGYAQSDAQGQMNKMGGFNLKYRYEEDNSPLGVIGSFTYTEKSRTAS
B7: CPX-L2-5 displaying SApep at the N-terminus (other)
chain: GQSGQAECHPQGPPCIEGRKGGQSGQSGDYNKNQYYGITAGPAYRINDWASIYGVVGVGYGKFQTTEYPTYKHDTSDYGFSYGAGLQFNPMENVALDFSYEQSRIRSVDVGTWIISVGYRFGDRKRRATSTVTGGYAQSDAQGQMNKMGGFNLKYRYEEDNSPLGVIGSFTYTEKSRTAS
B8: CPX-L2-6 displaying SApep at the N-terminus (other)
chain: GQSGQAECHPQGPPCIEGRKGGQSGQSGDYNKNQYYGITAGPAYRINDWASIYGVVGVGYGKFQTTEYPTYKHDTSDYGFSYGAGLQFNPMENVALDFSYEQSRIRSVDVGTWIVAVGYRFGARGRHATSTVTGGYAQSDAQGQMNKMGGFNLKYRYEEDNSPLGVIGSFTYTEKSRTAS
B9: CPX-L2-8 displaying SApep at the N-terminus (other)
chain: GQSGQAECHPQGPPCIEGRKGGQSGQSGDYNKNQYYGITAGPAYRINDWASIYGVVGVGYGKFQTTEYPTYKHDTSDYGFSYGAGLQFNPMENVALDFSYEQSRIRSVDVGTWIVSVGYRFGPNKSRATSTVTGGYAQSDAQGQMNKMGGFNLKYRYEEDNSPLGVIGSFTYTEKSRTAS
B10: CPX-6X-1 displaying SApep at the N-terminus (other)
chain: GQSGQAECHPQGPPCIEGRKGGQSGQSGDYNKNQYYGITAGPAYRINDWASIYGVVGVGYGKFQTTEYPTYKHDTSDYGFSYGAGLQFNPMENVALDFSYEQSRIRSVDVGTWIAGVGYRFGTKRYHATSTVTGGYAQSDAQGQMNKMGGFNLKYRYEEDNSPLGVIGSFTYTEKSRTAS
B11: CPX-6X-3 displaying SApep at the N-terminus (other)
chain: GQSGQAECHPQGPPCIEGRKGGQSGQSGDYNKNQYYGITAGPAYRINDWASIYGVVGVGYGKFQTTEYPTYKHDTSDYGFSYGAGLQFNPMENVALDFSYEQSRIRSVDVGTWIAGVGYRFGNRRHRATSTVTGGYAQSDAQGQMNKMGGFNLKYRYEEDNSPLGVIGSFTYTEKSRTAS
B12: CPX-6X-4 displaying SApep at the N-terminus (other)
chain: GQSGQAECHPQGPPCIEGRKGGQSGQSGDYNKNQYYGITAGPAYRINDWASIYGVVGVGYGKFQTTEYPTYKHDTSDYGFSYGAGLQFNPMENVALDFSYEQSRIRSVDVGTWIASVGYRFGSKQSKATSTVTGGYAQSDAQGQMNKMGGFNLKYRYEEDNSPLGVIGSFTYTEKSRTAS
B13: CPX-6X-2 displaying SApep at the N-terminus (other)
chain: GQSGQAECHPQGPPCIEGRKGGQSGQSGDYNKNQYYGITAGPAYRINDWASIYGVVGVGYGKFQTTEYPTYKHDTSDYGFSYGAGLQFNPMENVALDFSYEQSRIRSVDVGTWIAGVGYRFGRRHYKATSTVTGGYAQSDAQGQMNKMGGFNLKYRYEEDNSPLGVIGSFTYTEKSRTAS
B14: CPX-5X-1 displaying SApep at the N-terminus (other)
chain: GQSGQAECHPQGPPCIEGRKGGQSGQSGDYNKNQYYGITAGPAYRINDWASIYGVVGVGYGKFQTTEYPTYKHDTSDYGFSYGAGLQFNPMENVALDFSYEQSRIRSVDVGTWIAGVGYRFGRTRKATSTVTGGYAQSDAQGQMNKMGGFNLKYRYEEDNSPLGVIGSFTYTEKSRTAS
B15: CPX-5X-3 displaying SApep at the N-terminus (other)
chain: GQSGQAECHPQGPPCIEGRKGGQSGQSGDYNKNQYYGITAGPAYRINDWASIYGVVGVGYGKFQTTEYPTYKHDTSDYGFSYGAGLQFNPMENVALDFSYEQSRIRSVDVGTWIVGVGYRFGATRRATSTVTGGYAQSDAQGQMNKMGGFNLKYRYEEDNSPLGVIGSFTYTEKSRTAS
B16: CPX-5X-2 displaying SApep at the N-terminus (other)
chain: GQSGQAECHPQGPPCIEGRKGGQSGQSGDYNKNQYYGITAGPAYRINDWASIYGVVGVGYGKFQTTEYPTYKHDTSDYGFSYGAGLQFNPMENVALDFSYEQSRIRSVDVGTWIAGVGYRFGRKRNATSTVTGGYAQSDAQGQMNKMGGFNLKYRYEEDNSPLGVIGSFTYTEKSRTAS
B17: CPX-5X-4 displaying SApep at the N-terminus (other)
chain: GQSGQAECHPQGPPCIEGRKGGQSGQSGDYNKNQYYGITAGPAYRINDWASIYGVVGVGYGKFQTTEYPTYKHDTSDYGFSYGAGLQFNPMENVALDFSYEQSRIRSVDVGTWIASVGYRFGSQSKATSTVTGGYAQSDAQGQMNKMGGFNLKYRYEEDNSPLGVIGSFTYTEKSRTAS
B18: CPX-4X-1 displaying SApep at the N-terminus (other)
chain: GQSGQAECHPQGPPCIEGRKGGQSGQSGDYNKNQYYGITAGPAYRINDWASIYGVVGVGYGKFQTTEYPTYKHDTSDYGFSYGAGLQFNPMENVALDFSYEQSRIRSVDVGTWIAGVGYRFGSKRATSTVTGGYAQSDAQGQMNKMGGFNLKYRYEEDNSPLGVIGSFTYTEKSRTAS
B19: CPX-4X-4 displaying SApep at the N-terminus (other)
chain: GQSGQAECHPQGPPCIEGRKGGQSGQSGDYNKNQYYGITAGPAYRINDWASIYGVVGVGYGKFQTTEYPTYKHDTSDYGFSYGAGLQFNPMENVALDFSYEQSRIRSVDVGTWIVGVGYRFPRKSATSTVTGGYAQSDAQGQMNKMGGFNLKYRYEEDNSPLGVIGSFTYTEKSRTAS
B20: CPX-4X-3 displaying SApep at the N-terminus (other)
chain: GQSGQAECHPQGPPCIEGRKGGQSGQSGDYNKNQYYGITAGPAYRINDWASIYGVVGVGYGKFQTTEYPTYKHDTSDYGFSYGAGLQFNPMENVALDFSYEQSRIRSVDVGTWIAGVGYRFSWPNATSTVTGGYAQSDAQGQMNKMGGFNLKYRYEEDNSPLGVIGSFTYTEKSRTAS
B21: CPX-4X-2 displaying SApep at the N-terminus (other)
chain: GQSGQAECHPQGPPCIEGRKGGQSGQSGDYNKNQYYGITAGPAYRINDWASIYGVVGVGYGKFQTTEYPTYKHDTSDYGFSYGAGLQFNPMENVALDFSYEQSRIRSVDVGTWIAGVGYRFGRQKATSTVTGGYAQSDAQGQMNKMGGFNLKYRYEEDNSPLGVIGSFTYTEKSRTAS
B22: CPX-3X-3 displaying SApep at the N-terminus (other)
chain: GQSGQAECHPQGPPCIEGRKGGQSGQSGDYNKNQYYGITAGPAYRINDWASIYGVVGVGYGKFQTTEYPTYKHDTSDYGFSYGAGLQFNPMENVALDFSYEQSRIRSVDVGTWIAGVGYRFGTKATSTVTGGYAQSDAQGQMNKMGGFNLKYRYEEDNSPLGVIGSFTYTEKSRTAS
B23: CPX-3X-4 displaying SApep at the N-terminus (other)
chain: GQSGQAECHPQGPPCIEGRKGGQSGQSGDYNKNQYYGITAGPAYRINDWASIYGVVGVGYGKFQTTEYPTYKHDTSDYGFSYGAGLQFNPMENVALDFSYEQSRIRSVDVGTWIAGVGYRFGKKATSTVTGGYAQSDAQGQMNKMGGFNLKYRYEEDNSPLGVIGSFTYTEKSRTAS

T1 sequence (P22629 37-163 limits assumed): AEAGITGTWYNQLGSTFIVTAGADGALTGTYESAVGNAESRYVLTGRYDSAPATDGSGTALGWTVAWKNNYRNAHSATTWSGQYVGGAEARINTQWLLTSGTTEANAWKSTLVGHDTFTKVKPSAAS

The first experiment addresses T1, streptavidin-R-phycoerythrin (UniProt P22629 37-163, limits assumed).
T1 construct: Bought conjugate; also called SA-PE; fluorescently-conjugated streptavidin probe
The experiment in a line: flow cytometry of E. coli displaying the construct, 100 nM SA-PE; 25 minutes of expression. Background: In flow cytometry, cells or beads pass a laser one at a time.
Turning to B1, the “Relative Display level (fold fluorescence above background)” value was 33 fold above background.

As to B2, the “Relative Display level (fold fluorescence above background)” value was 29 fold above background.

For B3, the “Relative Display level (fold fluorescence above background)” value amounted to 27 fold above background.

As for B4, the “Relative Display level (fold fluorescence above background)” value came to 19 fold above background.

For B5, the “Relative Display level (fold fluorescence above background)” value worked out at 23 fold above background.

With B6, the “Relative Display level (fold fluorescence above background)” value was 26 fold above background.

On to B7, for which the “Relative Display level (fold fluorescence above background)” value turned out to be 28 fold above background.

Turning to B8, the “Relative Display level (fold fluorescence above background)” value was 24 fold above background.

Consider B9, for which the “Relative Display level (fold fluorescence above background)” value came out at 17 fold above background.

A further experiment has as its target T1, streptavidin-R-phycoerythrin. The experiment in a line: flow cytometry of E. coli displaying the construct, 100 nM SA-PE; 50 minutes of expression.
Turning to B10, the “Relative Display level (fold fluorescence above background)” value was 35 fold above background.

For the molecule B11, the “Relative Display level (fold fluorescence above background)” value worked out at 24 fold above background.

B12: the “Relative Display level (fold fluorescence above background)” value was found to be 38 fold above background.

As to B13, the “Relative Display level (fold fluorescence above background)” value came out at 28 fold above background.

On to B14, for which the “Relative Display level (fold fluorescence above background)” value amounted to 24 fold above background.

Take B15: the “Relative Display level (fold fluorescence above background)” value was determined as 32 fold above background.

As to B16, the “Relative Display level (fold fluorescence above background)” value is 22 fold above background.

In the case of B17, the “Relative Display level (fold fluorescence above background)” value came to 36 fold above background.

Turning to B18, the “Relative Display level (fold fluorescence above background)” value is 18 fold above background.

Turning to B19, the “Relative Display level (fold fluorescence above background)” value is 22 fold above background.

On to B20, for which the “Relative Display level (fold fluorescence above background)” value turned out to be 15 fold above background.

Regarding B21, the “Relative Display level (fold fluorescence above background)” value was determined as 14 fold above background.

For the molecule B22, the “Relative Display level (fold fluorescence above background)” value worked out at 7.1 fold above background.

Consider B23, for which the “Relative Display level (fold fluorescence above background)” value turned out to be 10 fold above background.
